Series [1] deals with T1, HIV-1 integrase (Human immunodeficiency virus 1 (BH10), UniProt P03366 P03366:1160-1447). Put plainly: FP filter; deletion had no noticeable effect on binding. The following applies: tags: gift of Agouron Pharmaceuticals; BH10 clone.
For series [2], the target named is T1, HIV-1 integrase. The series can be described thus: FP filter; binding completely abolished. The following applies: tags: gift of Agouron Pharmaceuticals; BH10 clone.
The target in series [3] is T1, HIV-1 integrase. Put plainly: competition; inhibits binding of con+/- U5 DNA, 180 mM NaCl. To be noted: tags: gift of Agouron Pharmaceuticals; BH10 clone; stem-loops with GNRA tetraloop and putative pseudoknot (11-14 with 28-31).
Experimental: 50 nM integrase was mixed with 20 nM double-stranded con± which mimics the U5 region of the HIV genome and incubated at 37° C. for 5 minutes. After this time, varying amounts of P5 or 30N RNA (i.e., random pool RNA) was added and the reaction mix (30 µl final volume) was incubated further for 20 minutes. The reactions were then placed at room temperature and passed over nitrocellulose filters. Filters were washed three times with 1 ml of 50 mM Tris-Cl pH 7.5. Filters were dried under a heat lamp and counted in a cocktail for 1 minute each. In the absence of RNA under these conditions, approximately 10% of the double-stranded DNA was retained on filter.
The target of series [4] is T1, HIV-1 integrase. The series can be described thus: FP filter; nitrocellulose filter; 50 mM NaCl. To be noted: tags: gift of Agouron Pharmaceuticals; BH10 clone; stem-loops with GNRA tetraloop and putative pseudoknot (11-14 with 28-31). The method, then:
(§1) Binding assays were done by adding 5 µl of HIV-1 integrase protein, at the appropriate concentrations (i.e., ranging from 2 ×10^-6 with 3 fold dilutions to 9 ×10^-9 for 250 mM NaCl and 0.5 ×10^-7 with 3 fold dilutions to 2 ×10^-10 for 50 mM NaCl), to 45 µl of binding buffer (50 mM Na-HEPES pH 7.5, 250 mM NaCl, 2 mM DTT, 10 mM MnCl_2, 5 mM CHAPS) on ice, then adding 50,000 cpm of kinased RNA (<200 fmoles) in a volume of 3 to 4 µl. This mix is incubated at 37° C. for 20 minutes. The reactions were then passed over nitrocellulose filters, which were pre-equilibrated in buffer, and washed with a 50 mM Tris-Cl pH 7.5 solution. Filters were dried and counted in cocktail. The proteins used in these experiments were frozen and thawed only once. Each binding curve consisted of seven points and each point is an average since experiments were done in triplicate.

Series [5] addresses T1, HIV-1 integrase. Put plainly: FP filter; nitrocellulose filter; 250 mM NaCl, 10 mM MnCl2, pH 7.5, 37 C. The following applies: tags: gift of Agouron Pharmaceuticals; BH10 clone; stem-loops with GNRA tetraloop and putative pseudoknot (11-14 with 28-31). The method, then: as §1
Series [6] concerns the target T1, HIV-1 integrase. Put plainly: FP filter; nitrocellulose filter; 250 mM NaCl. To be noted: tags: gift of Agouron Pharmaceuticals; BH10 clone. Here is the method:
as §1

Residue numbers refer to the chain shown, from its start.

B1: P5 truncate lacking 1-6 and 64-77 (ssRNA)
RNA: UCAGAAUAAACGCUCAACCAGUCUUGUGGCUUUGAAAGAGAGGAGUGUUCGACAUGA
For B1, in series [1], the binding result is “binds”.

B2: P5 deletion of 1-14 (ssRNA)
RNA: AACGCUCAACCAGUCUUGUGGCUUUGAAAGAGAGGAGUGUUCGACAUGAGGCCCGGAUCCGGC
Turning to B2, the binding result in series [2] was “no binding”.

B3: P5 deletion of 56-77 (ssRNA)
RNA: GGGAGCUCAGAAUAAACGCUCAACCAGUCUUGUGGCUUUGAAAGAGAGGAGUGUU
In the case of B3, the binding result in series [2] is recorded as “no binding”.

B4: P5 (ssRNA)
RNA: GGGAGCUCAGAAUAAACGCUCAACCAGUCUUGUGGCUUUGAAAGAGAGGAGUGUUCGACAUGAGGCCCGGAUCCGGC
In the case of B4, the IC50 in series [3] is 6 nM. For the same molecule, the Kd worked out at 2 nM in series [4] and 12 nM in series [5].

B5: P23 (ssRNA)
RNA: B4 RNA with G32A, U37G, A41C, G46U, A50G, U52C
B5: the Kd in series [6] worked out at 25 nM.

Source of the values: patent US5587468, “High affinity nucleic acid ligands to HIV integrase” (University Research Corporation).
